In the nanobody polyreactivity screen of Harvey et al. (2022):

Test: yeast display, Sf9 membrane polyspecificity reagent, FACS + sequencing; frameworks hold sequencing errors
Outline: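 Genes from sorted yeast were amplified by colony PCR, read by MiSeq 2 × 250 sequencing and filtered on CDR length. These cells carried a synthetic nanobody library in Saccharomyces cerevisiae BJ5465 and were sorted by FACS into low and high (top ~1%) gates on anti-HA and streptavidin fluorescence. Polyreactivity is labelled according to the gate of origin.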

Row | Sequence | polyreactivity (PSR sort gate)
1 | QVQLVESGGGLVQAGGSLRLSCDPSGRIFNRYAMGWYRQAPGKERELVAAITSGGDTNYADSVKGRFTISRDNAKNTVYLQMNSLKQEDTAVYYCNARSRGRASGYDYWGQGTQVTVSS | high polyreactivity
2 | QVQLVESGGGLVQAGGSLRLSCAASGRIFTAYHMGWYRQAPGKESELVAAITRSSGSTYYADSVKGRFTISRDNAKNTVYLQMIRLKPEVTAVYYCATDGEFWGYDSWGQGTQVTVSS | low polyreactivity
3 | QVQLVESGGGLVQAGGSLRLSCAASGSTFSHYAMVWYRQAPGKERELVATITGTGVRTYYADSVKGRFTISRDNAKNTVYLQMNSLKPEDTAVSYCAVPPSKRGAQAQPWMDYWGQGTQVTVSS | low polyreactivity
4 | QVQLVESGGGLVQAGGSLRLSCAASGRTFSVYAMGWYRQAPGKERELVARIRWSSGITYYADSVKGRFTISRDNAKNTVYLQMNSLKPEDTAVYYCAARYYTSATMDYWGQGTQVTVSS | high polyreactivity
5 | QVQLVESGGGLVQAGGSLRLSSAATGYIYSHNAMGWYRQSPGKEREFVAGIDSSGGSTSYADSVKGRFTISRDNAKNTVYLQMNSLKPEDTAVYYCAADRTGSHFDYCGQGTQVTVSS | low polyreactivity
6 | QVQLVESGGGLVQAGGSLRLSCAASGRIFGRYAMGSYRQAPGKERELVAGINSGSTSYADSVRGRFTISRDNAKNTVYLQMNSLKPEDTAVYYCARGPRYRGGWDTFRGFDYWGQGTQVTVSS | low polyreactivity
7 | QVQLVESGGGLVKAGGSLRLSCAASGFTFAYYAMGWYRQAPGKERELVAAISGSGGSTYYADSVKGRFTISRDNAKNTVYLQMNSLKPEDTAVYYCAAARRSTWSYSYYWGQGTQVTVSS | high polyreactivity
8 | QVQLVESAGGLVQAGGSLRLSCAASGRTSVIYAMGWYRQAPGKERELVASIRRGGSTSYADSVKGRFTISRDNAKNTVYLQMNSLKPEDTAVYYCARETLGGTYLGDYWGQGTQVTVSS | high polyreactivity
9 | QVQLVESGGGLVQAGGSLRLSCAASGSIFKQYVMGWYRQAPGKEREFVARISKSGGSTYYADSVKGRFTISRDNAKNTVYLQMNSLKPEDTAVYYCAVASKQALQPWYDYWGQGTQVTVSS | high polyreactivity
10 | QVQLVESGGGLVQAGGSLRLSCAASGRIFWYYTMGWYRQAPGKERELVAAISRGGSTYYADSVKGRFTISRDNAKNTVYLQMNSLKPEDTAVYYCAAQESWKIYDYWGQGTQVTVSS | low polyreactivity
11 | QVQLVESGGGLVQAGGSLRLSCAASGRIFDYNTMGWYRQAPGKERELVAAITGGTGSTYYADSVKGRFTISRDNAKNTVYLQMNSLKPEDTAVYYCAAGFHKRVSPEILYDYWGQGTLVTVSS | low polyreactivity
12 | QVQLVESGGCLVQAGGTLRLSCDASGITFSRNTMGWYRQAPGKERELVAAITLRGGGRTYYADSVKGRFTISRDNAKNTDYLQLNSLNPEDTAVYYCARVYSSEKAYGYWGQGTQVTVSS | high polyreactivity
13 | QVQLVESGGGLVQAGGSLRLSCAASGSIFYGYAMGWYRQAPGKERELVARITGSGGDTSYADSVKGRFTISRDNAKNTVYLQMNSLKPEDTAVYYCAKRGYHFLTKYDYWGQGTQVTVSS | low polyreactivity
14 | QVQLVESGGGLVQAGGSLRLSCAASARIFGWNSMGWYRQAPGKERELVAAISWRGGSTYYADSVKGRFTISRDNAKNTVYLQMNSLKPEDTAVYYCNALYTRYVSQWFGYWGEGTQVTVSS | high polyreactivity
15 | QDQHVESGGGLVQAGGSLRLSCAASGIIFDYNAMGWYRQAPGKERELVAAITSTDNTNYADSVKGRLTISRDNAKNTVYLQMNSLKPEDTAVYYCNSDYWLSVVYAMDYWGQGTQVTVSS | low polyreactivity
16 | QVQLVESGGGLVQAGGSLRLSCAASGLTFQKYAMGWYRQAPGKERELVAAISRGGDTYYADSVKGRFTISRDNAKNTVYLQMNSLKPEDTAVYYCAASNYLYRYSHYGYWGQGTQVTVSS | high polyreactivity
17 | QVQLVESGGGLVQAGGSLRLSCAASGSIFPFNAMGCYRQAPGKERELVAAISYSGGSTYYADSVKGRFTISRDNAKNTVYLQMTRLKPEDTAVYYCNRLLRRHLYIFYYWGQGTLVTVSS | high polyreactivity
18 | QVHLVESGGGLVLAGGSLRLSCAASGIIFTYAMGWYRHAPGNERELVAAIDWRGGRTYYADSLKGRFTISRDNAKNTFYLQMNSLKPEDTAVYYCAPRLPGGTYYWGQGTQVTESS | high polyreactivity
19 | QVQLVESGGGLVQAGGRLRISCAASGRIFTYNTLGWSRQEPGKERELVAAIRTGGSTNYADSVKGRFTISRDNAKITVNLQMNSLKPEDTAVSYCNTVRHSTSDYWYDFWGQGTQVTLSS | low polyreactivity
20 | QFQLVESGGGLVQAGGSLRLSCAASGITFSFYAIVWYRQATGKERELVAAINGRGGRTYYADSVKGRFTISRDKAKNTFYLQMNSLKTEDTAVYFCAAVVWRTDYDYWGQGTQVTVSS | low polyreactivity
21 | QVQLVESGGGLVQAGGSLRLSCAASAFIIHRYAMGWYRQAPGKERELVAVITSGGGSTYYADSVKGRFTISRDNAKNTVYLQMNCLKAEDTAVYYCAAFQPDNSRYRYDYWGQGTQVTVSS | high polyreactivity
22 | QVQLVESGGGLVQAGGSLRLSCAASGRIFRRYAMGWYRQAPGKERELVASISSGGSTNYADSVKGRFTISRDNAKNTVYLQMNSLKPEDTAVYYCAAAYPWQTRYSSPYYYWGQGTQVTVSS | high polyreactivity

Row | Sequence | polyreactivity (PSR sort gate)
23 | QVELVESGGGLVQAGGSLRLSCAASGRIFSPNAMGWYRQAPGKERELVAALTGSGGTTYYADSVKGRFKISRDNAKNTVYLQMNSLKREDTAVYYCAADLYPFSRNPRYQFLYNYWGQGTQVTVSS | low polyreactivity
24 | QVQLVESVGGLVQAGGSLRLSCASSVRTFYRYAMGWYRQAPGKERELVAAISRGGRTNYADSVKGRFTISRDNAKNTVYLQMNSLKPEDTAVYYCAVSNYGALYDYWGQGTQVSVSS | high polyreactivity
25 | QVHLVESGGGLVQAGGSLRLSCAASGFNFLIYAMGWYRQAPGKERELVAAITLRGSGTYYADSVKGRFTISRDNAKNTVYLQMNSLKPEDTAVYDCAAGTARRTYDYWGQGTQVTVSS | low polyreactivity
26 | QVQLVESGGCLVQAGGSLRLSCAASGRIFESNAMGWYRQAPGKERELVAAISVNGASTSYADSVKGRFTISRDNAKNTVYLQMNSLKPEDTAVYYCAARRGKGYYYWGQGTQVTVSS | high polyreactivity
27 | QVQLVESGGGLVQAGGSLRLSCAASGRIFGAYAMGSYRQAPGKERELVAAIDIRGGKTYYADSVKGRFTISRDYSKNSVYLQMNSMKPEDTAVYYCAADTWYDAYNYWGQGTQVTVSS | low polyreactivity
28 | QVQLVESGGGLVQAGGSLRLSCAASGFTFEIYAMGWYRQAPGKEREFVASISWSVGSTYYADSVKGRFTISRDNAKNTVYLQMNSLKPEDTAVYYCNADWRHKYYHSYLYDYWGQGTQVTVSS | low polyreactivity
29 | QVHLVESGGGIVQAGGRLRLSCAASGLIFYHYAMGWYRQAPGKEREFVAAITVSGGSTYYADSVKGRFTITRDNAKNTVYLQMNSLKPEDSAVYYCNARSVVWWASGDYWGQGTQVTVSS | low polyreactivity
30 | QVQLVESGGGLVQAGGSLRLSCSASGSIFASNTMGWYRQAPGKERELVAGITKIGSSTYYADSVKGRFTISRDNAKNTFYLQMKSLKPEDTAVSYCKAYGPNIYSSRYDYWVQGTQVTVSS | low polyreactivity
31 | QVQLVESGGGLVQAGGSLRLSCAASGSIFGIYTMGWYRQAPGKERELVAAITSVGSTNYADSVKGRFTISRDNAKNTVYLQMNSLKPEDTAGYYCARASAWYVTLVGKYTKYDYWGQGTQVTVSS | low polyreactivity
32 | QVQLVESGGGLVQAGGSLRLSCAASGSIFADYAMGWYRQAPGKERELVAVITSSGGSTNYADSVKGRFTISRDNAKNTVYLQMNSLKPEDTAVYYCNRRPYPSYDYWGQGTQVTVSS | low polyreactivity
33 | QVQLDESGGRLVQAGGSLRLSCAASGSIFKVNAMGWYRQAPGKERELVAVISKRGGSTYYADSVKGRFTISRDHAKNTVYLQMNSLKPEDTAVYYCAAGKAPPSLRWVARIGKYEYWGQGTQVTVSS | low polyreactivity
34 | QVQLVESGGGLVQAGGSLRLSCAASGSTFYKNAMGWYRQAPGKEREFVAAIRSGDSTNYADSVKGRFTISRDNAKNTVYIQMNSLKPEDSAVYYCARDRPGDYAGYDYWGQGSQVTVSS | low polyreactivity
35 | QVQLVESGKGLVQAGGSLRLSCAASGITITIYAMGWYRNAPGKERELVAAITWRGGRTYYADSVKGRFTISRDNAKNTVYLQMNSLKPEDTAVYYCNALFGSYPYYWFEYWGHGTQVTVSS | high polyreactivity
36 | PVQLVESGGGLVQAGGSLRLSCAASGRTFGLNGKGWYRQSPGKEREFVATITGSGTSTYYADSVKGRFTISRDNAKNTVYLQMNSLKPEDSAVYFCAALSGLWGYHYYHEYYYWGQGTQVTVSS | low polyreactivity
37 | QVQLVESGGGLVQAGGSLRLSCAASGRSFEVYVMGWYRQAPGKERELVAAISTGGSTYYADSVKGRFTISRDNAKNTVYLQMNSLKPEDTAVYYCAAKRTGNGYPRSGYSRYEYWGQGTQVTVSS | high polyreactivity
38 | QVQLVDSGGGLVQAGGSLRLSCAASGFIFQYYAMGWYRQAPGKEMGLVAAISFSGGSTYYADSVKGRFTISRDNAKNTVYLQMNSLKPEDTAVYYCAAEVYSVGDYSGHDYYWGQGTQVTVSS | low polyreactivity
39 | QVQLVESGGGLVQAGGSLRLSCAASGFIFSAYVMGWYRQAPGKERELVAAISQSGARTYYADSVKGRFTISRDNAKNTVYLQMNSLKPEDTAVYYCAADRRDFRTYDYWGQGTQVTVSS | high polyreactivity
40 | QVQLVETGGGIVQAGGSLRLRCAAAGRHCYHNVMGWYRQAPGKERELVAGIRSRGGSTSYADSVKGRFTISRDNSKNTVYLQMNSLKPEDTAVYYCATDTTLWYVLYDYWGQGTQVTVSS | low polyreactivity
41 | QVQLEESGGGLVQAGGSLRLSCAASGRIFVSNDMGWYRQAPGKERELVAAITWSDDSTHYADSVKGRFTISRDYAKNTVYLQRNSVKPEDTAVYYCNKQRYYSTWRYDYWGQGTQVTVSS | low polyreactivity
42 | QVQLVESGGGLVQAGGSLRLSCAASGSMIAFYVMGLYRQAPGKERELVAAINRGGTNTYYADSVKGRFTISRDNAKNTVYLQMNSLKPEDTAVYYCAADGDRSAQRYTGYYYWGQGTQVTVSS | high polyreactivity
43 | QVQLVESGGGLVQAGGSLRLSCDASGSIFPYYAMGWYRQAPGKERELVAAITSSDGITYYADSVKGRFTISRDNAKNTVYLQMNSLKPEDTAVYYCAAEVYVADWLTEFYYWGQGTQVTVSS | high polyreactivity
